Assay results published in US20250122303A1, “TREATMENT AND PREVENTION OF CANCER USING HER3 ANTIGEN-BINDING MOLECULES” (Hummingbird Bioscience Pte. Ltd., priority 2021, published 2025).

Experiments:
[1] = target: human HER3:human NRG1 complex (human) (UniProt P21860); assay: BLI (Octet QK384), antibody captured on AHC sensors, HER3-NRG1 complex (1:1 molar ratio) in solution
[2] = target: His-tagged human HER3 (human) (UniProt P21860); assay: BLI competition: His-tagged human HER3 on anti-Penta-HIS tips saturated with LJM-716 (400 nM), then MM-121 as competing antibody (300 nM); no unit in the table, the y axis of FIG. 14A is Shift (nm)
FcRn (human) = FcRn (human) (UniProt P55899); assay: Bio-Layer Interferometry (determined as described in Example 7)
moFcRn (mouse) = moFcRn (mouse) (UniProt Q61559); assay: as above
[3] = target: His-tagged FcγRIIIa (V158) (human) (UniProt P08637); assay: as above
FcgRIIA (R167) (human) = FcgRIIA (R167) (human) (UniProt P12318); assay: as above
FcgRIIA (R167) (human), sequence (P12318 36-218 H167R limits assumed): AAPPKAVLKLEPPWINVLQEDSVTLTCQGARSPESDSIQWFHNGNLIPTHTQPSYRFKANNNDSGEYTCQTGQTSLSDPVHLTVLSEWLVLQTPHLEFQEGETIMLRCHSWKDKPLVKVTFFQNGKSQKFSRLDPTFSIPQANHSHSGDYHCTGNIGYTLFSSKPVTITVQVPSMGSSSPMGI

FcgRIIA (H167) (human) = FcgRIIA (H167) (human) (UniProt P12318); assay: as above
FcgRIIA (H167) (human), sequence (P12318 36-218 limits assumed): as the sequence (P12318 36-218 H167R limits assumed) above, with R132H counted along it

FcgRIIB (human) = FcgRIIB (human) (UniProt P31994); assay: as above
FcgRIIB (human), sequence (P31994 46-217 limits assumed): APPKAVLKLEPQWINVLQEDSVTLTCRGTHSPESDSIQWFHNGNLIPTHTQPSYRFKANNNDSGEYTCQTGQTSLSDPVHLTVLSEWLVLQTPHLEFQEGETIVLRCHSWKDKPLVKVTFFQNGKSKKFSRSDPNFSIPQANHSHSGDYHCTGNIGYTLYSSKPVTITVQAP

[4] = target: recombinant biotinylated human HER3 protein (human) (UniProt P21860); assay: plate ELISA dimerisation assay; human EGFR-His coated, constant HER3-biotin and NRG, antibody varied; blocked partner EGFR-His

B1: LJM716 (antibody, INN chains, looked up, human IgG1, V domains shown)
VH: EVQLLESGGGLVQPGGSLRLSCAASGFTFSSYAMSWVRQAPGKGLEWVSAINSQGKSTYYADSVKGRFTISRDNSKNTLYLQMNSLRAEDTAVYYCARWGDEGFDIWGQGTLVTVSS
VL: DIQMTQSPSSLSASVGDRVTITCRASQGISNWLAWYQQKPGKAPKLLIYGASSLQSGVPSRFSGSGSGTDFTLTISSLQPEDFATYYCQQYSSFPTTFGQGTKVEIK
Kd [1]: 16.8 nM

B2: MM-121 (antibody, INN chains, looked up, human IgG2)
heavy: EVQLLESGGGLVQPGGSLRLSCAASGFTFSHYVMAWVRQAPGKGLEWVSSISSSGGWTLYADSVKGRFTISRDNSKNTLYLQMNSLRAEDTAVYYCTRGLKMATIFDYWGQGTLVTVSSASTKGPSVFPLAPCSRSTSESTAALGCLVKDYFPEPVTVSWNSGALTSGVHTFPAVLQSSGLYSLSSVVTVPSSNFGTQTYTCNVDHKPSNTKVDKTVERKCCVECPPCPAPPVAGPSVFLFPPKPKDTLMISRTPEVTCVVVDVSHEDPEVQFNWYVDGVEVHNAKTKPREEQFNSTFRVVSVLTVVHQDWLNGKEYKCKVSNKGLPAPIEKTISKTKGQPREPQVYTLPPSREEMTKNQVSLTCLVKGFYPSDIAVEWESNGQPENNYKTTPPMLDSDGSFFLYSKLTVDKSRWQQGNVFSCSVMHEALHNHYTQKSLSLSPG
light: QSALTQPASVSGSPGQSITISCTGTSSDVGSYNVVSWYQQHPGKAPKLIIYEVSQRPSGVSNRFSGSKSGNTASLTISGLQTEDEADYYCCSYAGSSIFVIFGGGTKVTVLGQPKAAPSVTLFPPSSEELQANKATLVCLVSDFYPGAVTVAWKADGSPVKVGVETTKPSKQSNNKYAASSYLSLTPEQWKSHRSYSCRVTHEGSTVEKTVAPAECS
Kd [1]: 1.92 nM | koff [1]: 0.000231 s⁻¹ | kon [1]: 120000 M⁻¹ s⁻¹ | response of the competing antibody (competition table) [2]: 0.693 | Kd (FcRn (human)): 11.5 nM | Kd (moFcRn (mouse)): 6.69 nM | Kd [3]: 7050 nM | Kd (FcgRIIA (R167) (human)): 243 nM | Kd (FcgRIIA (H167) (human)): 222 nM | Kd (FcgRIIB (human)): 1440 nM | IC50 [4]: 54.2 nM
